Measurements published in article PMC10897159, “Structural insights into the activation mechanism of antimicrobial GBP1” (The EMBO Journal, 2024).
Blank lines part the entries; values can stand above or below the molecule they belong to.

Assays:
[1] = target: GBP1 M139R, non-farnesylated (human) (UniProt P32455); experiment: SEC; analytical SEC (Superdex 200 5/150), 20 µM protein with 200 µM GDP, 300 µM AlCl3, 10 mM NaF (GDP•AlFx); 50 mM Tris-HCl pH 7.9, 150 mM NaCl, 5 mM MgCl2
[2] = target: GBP1 Δ207-223, non-farnesylated (human) (UniProt P32455); experiment: cross-linking; BS3 at 20-times molar excess, 20 µM protein, with 200 µM GDP, 300 µM AlCl3, 10 mM NaF (GDP•AlFx); 50 mM HEPES, 150 mM NaCl, 5 mM MgCl2; SDS-PAGE
[3] = target: GBP1 M139E, non-farnesylated (human) (UniProt P32455); experiment: SEC; analytical SEC (Superdex 200 5/150), 20 µM protein with 200 µM GDP, 300 µM AlCl3, 10 mM NaF (GDP•AlFx); 50 mM Tris-HCl pH 7.9, 150 mM NaCl, 5 mM MgCl2
[4] = target: T1, human guanylate-binding protein 1 (GBP1), wild-type, non-farnesylated (human), P32455; experiment: specific GTPase activity against protein concentration (HPLC), quadratic fit; apparent Kd of dimer formation; non-farnesylated GBP1, 1 mM GTP, 37 °C, 50 mM Tris-HCl pH 7.9, 150 mM NaCl, 5 mM MgCl2; dimer to monomers; conditions: remark: other sources report otherwise
T1 chain: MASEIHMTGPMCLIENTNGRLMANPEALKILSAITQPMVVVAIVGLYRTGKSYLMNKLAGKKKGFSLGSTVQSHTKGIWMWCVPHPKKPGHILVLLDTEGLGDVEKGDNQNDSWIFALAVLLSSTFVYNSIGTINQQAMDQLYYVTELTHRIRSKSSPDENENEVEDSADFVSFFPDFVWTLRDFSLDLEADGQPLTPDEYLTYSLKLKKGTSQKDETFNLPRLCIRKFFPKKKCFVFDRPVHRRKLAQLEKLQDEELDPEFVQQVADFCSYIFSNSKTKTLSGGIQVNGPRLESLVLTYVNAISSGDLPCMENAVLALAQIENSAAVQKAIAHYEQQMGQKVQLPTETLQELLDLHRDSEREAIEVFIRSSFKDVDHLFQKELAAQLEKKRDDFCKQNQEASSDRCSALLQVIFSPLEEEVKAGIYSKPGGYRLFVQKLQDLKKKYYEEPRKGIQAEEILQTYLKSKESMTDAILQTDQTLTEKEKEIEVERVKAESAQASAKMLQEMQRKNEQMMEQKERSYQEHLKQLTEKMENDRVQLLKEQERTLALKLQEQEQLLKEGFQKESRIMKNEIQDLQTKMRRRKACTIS

[5] = target: T1, human guanylate-binding protein 1 …; experiment: cross-linking; BS3 at 20-times molar excess, 20 µM protein, with 200 µM GDP, 300 µM AlCl3, 10 mM NaF (GDP•AlFx); 50 mM HEPES, 150 mM NaCl, 5 mM MgCl2; SDS-PAGE; conditions: remark: other sources report otherwise
[6] = target: T2, human guanylate-binding protein 1 (GBP1), wild-type, farnesylated (human), P32455; experiment: cryo-EM structure; single particle analysis of polymeric disks; 5 µM farnesylated GBP1 with GDP•AlFx for 20-30 min, no membranes; ~37 Å; conditions: remark: other sources report otherwise
T2 chain: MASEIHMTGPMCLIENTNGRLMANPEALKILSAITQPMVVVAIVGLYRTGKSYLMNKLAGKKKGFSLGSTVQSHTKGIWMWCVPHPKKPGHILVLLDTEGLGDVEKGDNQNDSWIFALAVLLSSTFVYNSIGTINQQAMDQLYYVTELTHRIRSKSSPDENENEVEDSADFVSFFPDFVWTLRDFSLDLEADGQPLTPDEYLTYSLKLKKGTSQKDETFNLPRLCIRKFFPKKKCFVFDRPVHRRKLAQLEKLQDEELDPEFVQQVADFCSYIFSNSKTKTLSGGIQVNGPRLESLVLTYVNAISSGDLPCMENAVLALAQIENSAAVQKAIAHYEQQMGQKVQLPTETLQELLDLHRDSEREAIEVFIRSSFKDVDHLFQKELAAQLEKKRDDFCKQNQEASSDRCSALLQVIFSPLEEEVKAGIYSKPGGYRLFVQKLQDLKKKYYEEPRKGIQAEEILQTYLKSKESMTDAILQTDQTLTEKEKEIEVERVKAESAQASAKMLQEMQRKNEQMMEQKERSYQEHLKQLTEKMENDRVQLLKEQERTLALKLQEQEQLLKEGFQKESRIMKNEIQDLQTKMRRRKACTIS

[7] = target: the molecule itself; experiment: light scattering-based polymerization assay; 10 µM farnesylated GBP1, polymerization started with 1 mM GTP (for the pivot point mutants also with LPS added); 50 mM Tris-HCl pH 7.9, 150 mM NaCl, 5 mM MgCl2; absorbance at 350 nm over 40 min; dimers to polymers

Molecule: GBP1 M139E, non-farnesylated (from UniProt P32455 1-592) (natural protein)
- stoichiometry N [3]: 2

B2: human guanylate-binding protein 1 (GBP1), wild-type, farnesylated, P32455 1-592 (natural protein)
chain: MASEIHMTGPMCLIENTNGRLMANPEALKILSAITQPMVVVAIVGLYRTGKSYLMNKLAGKKKGFSLGSTVQSHTKGIWMWCVPHPKKPGHILVLLDTEGLGDVEKGDNQNDSWIFALAVLLSSTFVYNSIGTINQQAMDQLYYVTELTHRIRSKSSPDENENEVEDSADFVSFFPDFVWTLRDFSLDLEADGQPLTPDEYLTYSLKLKKGTSQKDETFNLPRLCIRKFFPKKKCFVFDRPVHRRKLAQLEKLQDEELDPEFVQQVADFCSYIFSNSKTKTLSGGIQVNGPRLESLVLTYVNAISSGDLPCMENAVLALAQIENSAAVQKAIAHYEQQMGQKVQLPTETLQELLDLHRDSEREAIEVFIRSSFKDVDHLFQKELAAQLEKKRDDFCKQNQEASSDRCSALLQVIFSPLEEEVKAGIYSKPGGYRLFVQKLQDLKKKYYEEPRKGIQAEEILQTYLKSKESMTDAILQTDQTLTEKEKEIEVERVKAESAQASAKMLQEMQRKNEQMMEQKERSYQEHLKQLTEKMENDRVQLLKEQERTLALKLQEQEQLLKEGFQKESRIMKNEIQDLQTKMRRRKACTIS
modifications: here or on the partner: farnesyl moiety at the C-terminal CaaX box motif; farnesyl moiety at the C-terminal CaaX box motif
- subunits (dimeric building blocks) in a planar polymeric disk [6]: 30 subunits

B3: GBP1 D199K, farnesylated (natural protein, human, UniProt P32455 1-592, looked up)
chain: MASEIHMTGPMCLIENTNGRLMANPEALKILSAITQPMVVVAIVGLYRTGKSYLMNKLAGKKKGFSLGSTVQSHTKGIWMWCVPHPKKPGHILVLLDTEGLGDVEKGDNQNDSWIFALAVLLSSTFVYNSIGTINQQAMDQLYYVTELTHRIRSKSSPDENENEVEDSADFVSFFPDFVWTLRDFSLDLEADGQPLTPKEYLTYSLKLKKGTSQKDETFNLPRLCIRKFFPKKKCFVFDRPVHRRKLAQLEKLQDEELDPEFVQQVADFCSYIFSNSKTKTLSGGIQVNGPRLESLVLTYVNAISSGDLPCMENAVLALAQIENSAAVQKAIAHYEQQMGQKVQLPTETLQELLDLHRDSEREAIEVFIRSSFKDVDHLFQKELAAQLEKKRDDFCKQNQEASSDRCSALLQVIFSPLEEEVKAGIYSKPGGYRLFVQKLQDLKKKYYEEPRKGIQAEEILQTYLKSKESMTDAILQTDQTLTEKEKEIEVERVKAESAQASAKMLQEMQRKNEQMMEQKERSYQEHLKQLTEKMENDRVQLLKEQERTLALKLQEQEQLLKEGFQKESRIMKNEIQDLQTKMRRRKACTIS
modifications: farnesyl moiety at the C-terminal CaaX box motif
notes: GBP1, human, full-length construct with D199K in helix α4; also called pivot point mutant
- binding result [7]: binds

The remaining lines, values ahead:

- stoichiometry N [1]: 2
Molecule: GBP1 M139R, non-farnesylated (from UniProt P32455 1-592) (natural protein)

- stoichiometry N [2]: 2
Molecule: GBP1 Δ207-223, non-farnesylated (from UniProt P32455 1-592) (natural protein)

- Kd [4]: 1900 nM
- stoichiometry N [5]: 2
B1: human guanylate-binding protein 1 (GBP1), wild-type, non-farnesylated, P32455 1-592 (natural protein)
chain: MASEIHMTGPMCLIENTNGRLMANPEALKILSAITQPMVVVAIVGLYRTGKSYLMNKLAGKKKGFSLGSTVQSHTKGIWMWCVPHPKKPGHILVLLDTEGLGDVEKGDNQNDSWIFALAVLLSSTFVYNSIGTINQQAMDQLYYVTELTHRIRSKSSPDENENEVEDSADFVSFFPDFVWTLRDFSLDLEADGQPLTPDEYLTYSLKLKKGTSQKDETFNLPRLCIRKFFPKKKCFVFDRPVHRRKLAQLEKLQDEELDPEFVQQVADFCSYIFSNSKTKTLSGGIQVNGPRLESLVLTYVNAISSGDLPCMENAVLALAQIENSAAVQKAIAHYEQQMGQKVQLPTETLQELLDLHRDSEREAIEVFIRSSFKDVDHLFQKELAAQLEKKRDDFCKQNQEASSDRCSALLQVIFSPLEEEVKAGIYSKPGGYRLFVQKLQDLKKKYYEEPRKGIQAEEILQTYLKSKESMTDAILQTDQTLTEKEKEIEVERVKAESAQASAKMLQEMQRKNEQMMEQKERSYQEHLKQLTEKMENDRVQLLKEQERTLALKLQEQEQLLKEGFQKESRIMKNEIQDLQTKMRRRKACTIS
